Assays:
[1] = confocal microscopy, apical marker gp135, MDCKII; conditions: glycan lost; control: wild type
[2] = immunoblot of PNGase F-treated MDCKII lysates, densitometry; conditions: glycan lost; control: wild type

B1: ABCG2: Q596 (protein)
parent chain: MSSSNVEVFIPVSQGNTNGFPATASNDLKAFTEGAVLSFHNICYRVKLKSGFLPCRKPVEKEILSNINGIMKPGLNAILGPTGGGKSSLLDVLAARKDPSGLSGDVLINGAPRPANFKCNSGYVVQDDVVMGTLTVRENLQFSAALRLATTMTNHEKNERINRVIQELGLDKVADSKVGTQFIRGVSGGERKRTSIGMELITDPSILFLDEPTTGLDSSTANAVLLLLKRMSKQGRTIIFSIHQPRYSIFKLFDSLTLLASGRLMFHGPAQEALGYFESAGYHCEAYNNPADFFLDIINGDSTAVALNREEDFKATEIIEPSKQDKPLIEKLAEIYVNSSFYKETKAELHQLSGGEKKKKITVFKEISYTTSFCHQLRWVSKRSFKNLLGNPQASIAQIIVTVVLGLVIGAIYFGLKNDSTGIQNRAGVLFFLTTNQCFSSVSAVELFVVEKKLFIHEYISGYYRVSSYFLGKLLSDLLPMRMLPSIIFTCIVYFMLGLKPKADAFFVMMFTLMMVAYSASSMALAIAAGQSVVSVATLLMTICFVFMMIFSGLLVNLTTIASWLSWLQYFSIPRYGFTALQHNEFLGQNFCPGLNATGNNPCNYATCTGEEYLVKQGIDLSPWGLWKNHVALACMIVIFLTIAYLKLLFLKKYS
localisation_or_trafficking [1]: no change | expression_or_secretion [2]: decreases

— article PMC4900533
